Data: paper PMC10715077

Biological target: recombinant PGI protein (pGEX-4T-PGI) (Ganoderma lucidum)
Assay: SPR; Biacore T200, NTA sensor chip; PGI immobilised, TLP2 as analyte at 0-400 µM (legend: 0-400 nM); 50 mM HEPES pH 7.5, 150 mM NaCl, 0.1% Tween 20

- Kd: 2210 nM
Substance: recombinant TLP2 protein (pColdI-TLP2) (natural protein)
